Assay results published in patent US20220332804A1 (CSL INNOVATION, published 2022).
One block for each binder: values may come before it.

Columns and labels:
[1] = molecular target: T1, Activated human C2 (huC2a) (human, UniProt P06681 244-752); experiment: SPR, mAb captured, neutral and acidic pH, 0 to 2 mM CaCl2
T1 construct: domain: C2a; also called human C2a
T1 sequence (looked up): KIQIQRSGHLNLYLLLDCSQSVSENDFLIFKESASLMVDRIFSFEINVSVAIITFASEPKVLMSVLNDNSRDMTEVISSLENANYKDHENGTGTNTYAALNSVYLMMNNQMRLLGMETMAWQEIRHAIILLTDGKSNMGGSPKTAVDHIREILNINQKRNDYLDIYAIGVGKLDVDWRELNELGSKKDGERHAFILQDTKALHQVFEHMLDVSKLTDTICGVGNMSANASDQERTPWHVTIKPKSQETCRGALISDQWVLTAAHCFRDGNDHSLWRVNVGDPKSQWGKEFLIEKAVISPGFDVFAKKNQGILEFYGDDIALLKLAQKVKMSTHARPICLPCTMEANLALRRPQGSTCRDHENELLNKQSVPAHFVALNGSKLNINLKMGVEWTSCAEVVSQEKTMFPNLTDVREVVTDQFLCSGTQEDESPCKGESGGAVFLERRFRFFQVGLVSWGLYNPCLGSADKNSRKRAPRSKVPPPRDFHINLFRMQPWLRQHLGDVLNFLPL
Method: Surface plasmon resonance (SPR, Biacore) was used for all binding affinity analyses. In brief, goat anti-human IgG was directly immobilised onto the carboxymethyl dextran surface of CM5 sensorchips to approximately 12,000 RU using standard NHS/EDC chemistry at pH 5. The immobilised antibody surface was pre-conditioned with ten injections of polyclonal human IgG (Privigen 60 s) prepared at 1 μg/mL. Ligands (anti-C2 mAbs) were captured at the beginning of each cycle as described below. An adjacent spot or flow cell in which only Polyclonal IgG was capture was used as a reference surface. The goat anti-human IgG Fc antibody surface was regenerate in 100 mM H3PO4, injected for 45 seconds at the end of each cycle. Experiments were performed at 37° C. and the flow rate of each experiment was kept constant at 30 μL/min.
The effect of calcium on antibody binding was determined with the addition of calcium chloride to the SPR running buffer. Calcium concentrations ranged from zero (i.e. no added calcium, control) to near physiological levels (0.02, 0.2 and 2 mM CaCl₂.2H₂O, MW 147.02 Da). […]
Purified human C2 zymogen was tested in physiological conditions (pH 7.3) at concentrations ranging from 1.9 to 500 nM and in acidic conditions (pH 6) at concentrations ranging from 3.9 to 2000 nM. […] Analyte association and dissociation were monitored for 180 and 600 seconds, respectively. […]

[2] = molecular target: T2, human complement C2 (human, UniProt P06681 21-752); experiment: SPR, mAb captured, C2 analyte
T2 construct: Recombinant full-length human C2 with C-terminal 8x His tag, purified from Expi293F supernatant; also called human C2; huC2
T2 sequence: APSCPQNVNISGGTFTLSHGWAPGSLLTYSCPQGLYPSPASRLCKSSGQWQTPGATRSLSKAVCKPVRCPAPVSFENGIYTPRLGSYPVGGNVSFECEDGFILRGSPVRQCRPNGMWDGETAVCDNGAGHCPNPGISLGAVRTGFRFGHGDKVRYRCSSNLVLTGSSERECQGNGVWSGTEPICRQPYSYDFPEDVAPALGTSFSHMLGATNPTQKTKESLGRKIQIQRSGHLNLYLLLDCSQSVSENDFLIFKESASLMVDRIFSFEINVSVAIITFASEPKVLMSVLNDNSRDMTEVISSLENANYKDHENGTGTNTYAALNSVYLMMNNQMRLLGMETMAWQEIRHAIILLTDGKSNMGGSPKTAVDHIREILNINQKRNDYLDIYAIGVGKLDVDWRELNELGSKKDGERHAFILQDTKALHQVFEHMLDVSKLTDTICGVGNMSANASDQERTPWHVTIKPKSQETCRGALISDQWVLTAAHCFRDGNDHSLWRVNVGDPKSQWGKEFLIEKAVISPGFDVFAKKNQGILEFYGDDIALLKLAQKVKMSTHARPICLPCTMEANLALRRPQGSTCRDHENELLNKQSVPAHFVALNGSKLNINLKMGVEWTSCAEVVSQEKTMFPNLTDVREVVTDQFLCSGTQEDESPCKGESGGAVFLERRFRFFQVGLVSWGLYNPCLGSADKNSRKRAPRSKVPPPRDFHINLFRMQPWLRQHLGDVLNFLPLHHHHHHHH

- binding result [1]: no binding
B1: RF16-226 (antibody)
heavy: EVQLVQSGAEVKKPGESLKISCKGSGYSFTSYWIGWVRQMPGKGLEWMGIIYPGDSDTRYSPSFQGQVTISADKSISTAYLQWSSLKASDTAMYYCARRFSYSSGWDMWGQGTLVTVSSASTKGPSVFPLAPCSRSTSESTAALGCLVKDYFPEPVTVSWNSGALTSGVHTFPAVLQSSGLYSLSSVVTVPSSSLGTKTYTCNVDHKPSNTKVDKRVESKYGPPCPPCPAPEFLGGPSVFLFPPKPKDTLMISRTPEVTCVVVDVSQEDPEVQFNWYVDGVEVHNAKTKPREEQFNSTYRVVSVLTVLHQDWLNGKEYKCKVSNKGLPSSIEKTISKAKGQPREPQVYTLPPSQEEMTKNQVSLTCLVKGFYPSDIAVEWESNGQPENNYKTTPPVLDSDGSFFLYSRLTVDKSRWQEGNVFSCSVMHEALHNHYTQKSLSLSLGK
light: SYELTQPPSVSVSPGQTARITCSGDALTSKYVAWYQQKSGLAPLLVIYEDTRRPSGIPAKFSGSSSGSVATLTISGAHGDDEADYYCYSTDASGHQRVFGGGTKLTVLSQPKAAPSVTLFPPSSEELQANKATLVCLISDFYPGAVTVAWKADGSPVKAGVETTKPSKQSNNKYAASSYLSLTPEQWKSHRSYSCQVTHEGSTVEKTVAPTECS

- Kd [2]: 0.031 µM
B2: RF16-214 (antibody, V domains shown)
VH: EVQLLESGGGLVQPGGSLRLSCAASGFTFSWYQMMWVRQAPGKGLEWVSRIYPSGGGTAYADSVKGRFTISRDNSKNTLYLQMNSLRAEDTAVYYCARDAGYGDNWGQGTLVTVSS
VL: QSALTQPPSVSVSPGQTASITCSGDKLGEKYASWYQQKAGQSPVMVIYQDRKRPSGIPERFSGSNSGNTATLTISGTQAMDEADYYCQAWDTRAVVFGGGTKLTVLG
